Measurements: patent US20180155451A1 (published 2018)

Assays:
FcγRIa = target: T1, FcγRIa (human, UniProt P12314 16-292); experiment: SPR (Biacore4000), kinetic analysis
T1 construct: extracellular domain; also called FcgRIa; FcgRI; not shown: His tag attached to the C terminus
Experimental: The variants described above were assessed for their binding to FcγR according to the method described in Reference Example 8.
(§1) Analysis of interaction between obj ective antibody and the FcγR was carried out using Biacore T100 (GE Healthcare), Biacore T200, Biacore A100, and Biacore 4000. HBS-EP+ (GE Healthcare) was used as the running buffer, and the measurement temperature was set to 25° C. Chips produced by immobilizing the antigen peptide by the amine coupling method to a Series S sensor Chip CM5 (GE Healthcare), chips produced by allowing preliminarily biotinylated antigen peptides to interact with and immobilize onto a Series S Sensor Chip SA (certified) (GE Healthcare), chips produced by immobilizing Protein L (ACTIGEN, BioVision) to Series S Sencor Chip CM5 (GE Healthcare), or chips produced by immobilizing Protein A/G (Thermo Scientific) to Series S Sencor Chip CM5 (GE Healthcare) were used. Antibodies of interest were captured onto these chips, and allowed to interact to each FcγR diluted with running buffer. To regenerate and repeatedly use the chip, the antibodies captured onto the chip were washed off by reacting 10 mM glycine-HCl, pH 1.5.

[1] = target: T2, FcgRIIIa F extracellular domain with C-terminal His tag (human, UniProt P08637 17-208); experiment: SPR (Biacore), antibody captured on chip, FcγR extracellular domain as analyte, kinetic analysis
T2 construct: extracellular domain; also called FcγRIIIa F; FcγRIIIa (F158); not shown: His tag attached to the C terminus
T2 sequence (P08637 17-208): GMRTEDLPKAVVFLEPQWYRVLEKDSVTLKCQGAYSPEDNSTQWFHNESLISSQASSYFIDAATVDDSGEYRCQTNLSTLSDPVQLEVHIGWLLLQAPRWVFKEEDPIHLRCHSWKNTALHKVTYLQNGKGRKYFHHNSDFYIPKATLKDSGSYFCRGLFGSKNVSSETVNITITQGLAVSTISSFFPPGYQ
Experimental: as §1

[2] = target: T3, FcgRIIIa V extracellular domain with C-terminal His tag (human, UniProt P08637 17-208); experiment: as above
T3 construct: extracellular domain; also called FcγRIIIa V; FcγRIIIa (V158); not shown: His tag attached to the C terminus
T3 sequence (P08637 17-208 F176V): as the sequence (P08637 17-208) above, with F160V counted along it
Experimental: as §1

T1 sequence (P12314 16-292): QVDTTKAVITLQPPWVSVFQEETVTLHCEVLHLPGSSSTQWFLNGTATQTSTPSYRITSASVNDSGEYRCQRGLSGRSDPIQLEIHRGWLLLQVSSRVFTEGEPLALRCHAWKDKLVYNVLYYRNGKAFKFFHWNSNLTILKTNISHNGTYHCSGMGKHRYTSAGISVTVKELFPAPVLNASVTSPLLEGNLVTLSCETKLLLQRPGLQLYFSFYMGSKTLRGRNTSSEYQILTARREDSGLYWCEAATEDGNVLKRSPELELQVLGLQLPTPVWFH

Binder | koff (FcγRIa) [s⁻¹] | Kd [1] [nM] | Kd [2] [nM]
H240-Kn120/H240-Hl073/L73-k0 (antibody, human IgG1, kappa, G236S in H240-Hl068) heavy 1: QDQLVQSGAEVKKPGASVKVSCKASGFNIKDTYIQWVRQAPGQGLEWMGRIDPLRKQTKYREKFEGRVTITADTSTNTAYMELSSLRSEDTAVYYCVRSGREFDYWGQGTLVTVSSASTKGPSVFPLAPSSKSTSGGTAALGCLVKDYFPEPVTVSWNSGALTSGVHTFPAVLQSSGLYSLSSVVTVPSSSLGTQTYICNVNHKPSNTKVDKKVEPKSCDKTHTCPPCPAPEYYWGPMVFLFPPKPKDTLMISRTPEVTCVVVDVSDEDPEVKFNWYVDGVEVHNAKTKPREEQYNATYRVVSVLTVLHQDWLNGKEYKCKVSNKDLPAPIEKTISKAKGQPREPQVCTLPPSRDELTKNQVSLWCLVKGFYPSDIAVEWESNGQPENNYKTTPPVLDSDGSFFLYSKLTVDKSRWQQGNVFSCSVMHEALHNHYTQKSLSLSP heavy 2: QDQLVQSGAEVKKPGASVKVSCKASGFNIKDTYIQWVRQAPGQGLEWMGRIDPLRKQTKYREKFEGRVTITADTSTNTAYMELSSLRSEDTAVYYCVRSGREFDYWGQGTLVTVSSASTKGPSVFPLAPSSKSTSGGTAALGCLVKDYFPEPVTVSWNSGALTSGVHTFPAVLQSSGLYSLSSVVTVPSSSLGTQTYICNVNHKPSNTKVDKKVEPKSCDKTHTCPPCPAPELLSGPSVFLFPPKPKDTLMISRTPEVTCVVVDVSHEEPEVKFNWYVDGVEVHNAKTKPREEQYNSTYRVVSVLTVLHQDWLNGKEYKCKVSNDALPKPIEETISKAKGQPREPQVYTLPPSRCELTKNQVSLSCAVKGFYPSDIAVEWESNGQPENNYKTTPPVLDSDGSFFLVSKLTVDKSRWQQGNVFSCSVMHEALHNHYTQKSLSLSP light: DIQMTQSPSSLSASVGDRVTITCRASQDIHKYIAWYQQKPGQAPRLLIQYTSTLQPGVPSRFSGSGSGTDYTFTISSLQPEDIATYYCLQYEQLRTFGGGTKVEIKRTVAAPSVFIFPPSDEQLKSGTASVVCLLNNFYPREAKVQWKVDNALQSGNSQESVTEQDSKDSTYSLSSTLTLSKADYEKHKVYACEVTHQGLSSPVTKSFNRGEC | < 5e-05 |  | 
H240-Kn061/H240-Hl134/L73-k0 (antibody, human IgG1, kappa, L234Y/L235Y/G236W/H268D/S298A in both H chains (called homodimerized); also called H240-Kn061/H240-HI134/L73-k0) heavy 1: QDQLVQSGAEVKKPGASVKVSCKASGFNIKDTYIQWVRQAPGQGLEWMGRIDPLRKQTKYREKFEGRVTITADTSTNTAYMELSSLRSEDTAVYYCVRSGREFDYWGQGTLVTVSSASTKGPSVFPLAPSSKSTSGGTAALGCLVKDYFPEPVTVSWNSGALTSGVHTFPAVLQSSGLYSLSSVVTVPSSSLGTQTYICNVNHKPSNTKVDKKVEPKSCDKTHTCPPCPAPEYYWGPSVFLFPPKPKDTLMISRTPEVTCVVVDVSDEDPEVKFNWYVDGVEVHNAKTKPREEQYNATYRVVSVLTVLHQDWLNGKEYKCKVSNKALPAPIEKTISKAKGQPREPQVCTLPPSRDELTKNQVSLWCLVKGFYPSDIAVEWESNGQPENNYKTTPPVLDSDGSFFLYSKLTVDKSRWQQGNVFSCSVMHEALHNHYTQKSLSLSP heavy 2: QDQLVQSGAEVKKPGASVKVSCKASGFNIKDTYIQWVRQAPGQGLEWMGRIDPLRKQTKYREKFEGRVTITADTSTNTAYMELSSLRSEDTAVYYCVRSGREFDYWGQGTLVTVSSASTKGPSVFPLAPSSKSTSGGTAALGCLVKDYFPEPVTVSWNSGALTSGVHTFPAVLQSSGLYSLSSVVTVPSSSLGTQTYICNVNHKPSNTKVDKKVEPKSCDKTHTCPPCPAPEYYWGPSVFLFPPKPKDTLMISRTPEVTCVVVDVSDEDPEVKFNWYVDGVEVHNAKTKPREEQYNATYRVVSVLTVLHQDWLNGKEYKCKVSNKALPAPIEKTISKAKGQPREPQVYTLPPSRCELTKNQVSLSCAVKGFYPSDIAVEWESNGQPENNYKTTPPVLDSDGSFFLVSKLTVDKSRWQQGNVFSCSVMHEALHNHYTQKSLSLSP light: DIQMTQSPSSLSASVGDRVTITCRASQDIHKYIAWYQQKPGQAPRLLIQYTSTLQPGVPSRFSGSGSGTDYTFTISSLQPEDIATYYCLQYEQLRTFGGGTKVEIKRTVAAPSVFIFPPSDEQLKSGTASVVCLLNNFYPREAKVQWKVDNALQSGNSQESVTEQDSKDSTYSLSSTLTLSKADYEKHKVYACEVTHQGLSSPVTKSFNRGEC |  | 660 | 86
H240-Kn132/H240-Hl071/L73-k0 (antibody, human IgG1, kappa, K326D/A330M/K334E in both H chains (called homodimerized); also called H240-Kn132/H240-HI071/L73-k0) heavy 1: QDQLVQSGAEVKKPGASVKVSCKASGFNIKDTYIQWVRQAPGQGLEWMGRIDPLRKQTKYREKFEGRVTITADTSTNTAYMELSSLRSEDTAVYYCVRSGREFDYWGQGTLVTVSSASTKGPSVFPLAPSSKSTSGGTAALGCLVKDYFPEPVTVSWNSGALTSGVHTFPAVLQSSGLYSLSSVVTVPSSSLGTQTYICNVNHKPSNTKVDKKVEPKSCDKTHTCPPCPAPELLGGPSVFLFPPKPKDTLMISRTPEVTCVVVDVSHEDPEVKFNWYVDGVEVHNAKTKPREEQYNSTYRVVSVLTVLHQDWLNGKEYKCKVSNDALPMPIEETISKAKGQPREPQVCTLPPSRDELTKNQVSLWCLVKGFYPSDIAVEWESNGQPENNYKTTPPVLDSDGSFFLYSKLTVDKSRWQQGNVFSCSVMHEALHNHYTQKSLSLSP heavy 2: QDQLVQSGAEVKKPGASVKVSCKASGFNIKDTYIQWVRQAPGQGLEWMGRIDPLRKQTKYREKFEGRVTITADTSTNTAYMELSSLRSEDTAVYYCVRSGREFDYWGQGTLVTVSSASTKGPSVFPLAPSSKSTSGGTAALGCLVKDYFPEPVTVSWNSGALTSGVHTFPAVLQSSGLYSLSSVVTVPSSSLGTQTYICNVNHKPSNTKVDKKVEPKSCDKTHTCPPCPAPELLGGPSVFLFPPKPKDTLMISRTPEVTCVVVDVSHEDPEVKFNWYVDGVEVHNAKTKPREEQYNSTYRVVSVLTVLHQDWLNGKEYKCKVSNDALPMPIEETISKAKGQPREPQVYTLPPSRCELTKNQVSLSCAVKGFYPSDIAVEWESNGQPENNYKTTPPVLDSDGSFFLVSKLTVDKSRWQQGNVFSCSVMHEALHNHYTQKSLSLSP light: DIQMTQSPSSLSASVGDRVTITCRASQDIHKYIAWYQQKPGQAPRLLIQYTSTLQPGVPSRFSGSGSGTDYTFTISSLQPEDIATYYCLQYEQLRTFGGGTKVEIKRTVAAPSVFIFPPSDEQLKSGTASVVCLLNNFYPREAKVQWKVDNALQSGNSQESVTEQDSKDSTYSLSSTLTLSKADYEKHKVYACEVTHQGLSSPVTKSFNRGEC |  | 77 | 16
